Sequences and labels used below:
B1: CPEB3 Ribozyme (parent)
chain: GGGGGCCACAGCAGAAGCGUUCACGUCGCGGCCCCUGUCAGAUUCUGGUGAAUCUGCGAAUUCUGCUGU

Variants of B1 are the subject of this data set. The data set is described as follows: self-cleavage, relative activity (ratio to wild type); higher = more cleavage; co-transcriptional.
Turning to G3U U49A, the self-cleavage was found to be 0.201.

On to G3U U49C, for which the self-cleavage is 0.176.

In the case of G3C G50A, the self-cleavage was 0.0909.

Turning to G3C G47U, the self-cleavage amounted to 0.0876.

On to G3C G47C, for which the self-cleavage was found to be 0.136.

Take G3C G47A: the self-cleavage is 0.264.

G3C C66G: the self-cleavage amounted to 0.0391.

Take G3C C66A: the self-cleavage was found to be 0.0406.

As to G3C A59G, the self-cleavage is 0.0736.

Regarding G3C A59C, the self-cleavage is 0.0244.

Take G3C U44A: the self-cleavage is 0.0725.

In the case of G3C U44G, the self-cleavage is 0.054.

For the variant G3U A40U, the self-cleavage was 0.0917.

As to G3U A40G, the self-cleavage was 0.0981.

In the case of G3C G4U, the self-cleavage amounted to 0.0461.

As to G3C G4C, the self-cleavage was determined as 0.137.

G3C G4A: the self-cleavage turned out to be 0.0691.

As to G3U U53C, the self-cleavage amounted to 0.0626.

For the variant G3U U53A, the self-cleavage was found to be 0.112.

Regarding G3U C54G, the self-cleavage came out at 0.0746.

As to G3U C54U, the self-cleavage stood at 0.148.

On to G3U C54A, for which the self-cleavage came out at 0.0729.

For G3C A16G, the self-cleavage is 0.162.

In the case of G3C A16U, the self-cleavage worked out at 0.0415.

For G3C A16C, the self-cleavage worked out at 0.0367.

With G3U A8C, the self-cleavage came to 0.146.

Turning to G3U A8G, the self-cleavage came out at 0.0722.

For the variant G3U A8U, the self-cleavage was found to be 0.121.

For G3U A59U, the self-cleavage worked out at 0.0422.

Regarding G3U A59C, the self-cleavage came to 0.0549.

For G3C C6U, the self-cleavage is 0.0391.

For G3C C6G, the self-cleavage is 0.0449.

With G3U C27U, the self-cleavage was found to be 0.0361.

As for G3U C27G, the self-cleavage turned out to be 0.0583.

In the case of G3A U26G, the self-cleavage came out at 0.29.

Turning to G3A U26A, the self-cleavage worked out at 0.187.

G3C A8G: the self-cleavage was determined as 0.0364.

For the variant G3C A8C, the self-cleavage is 0.0756.

For G3C A8U, the self-cleavage came to 0.123.

On to G3U U55C, for which the self-cleavage was 0.104.

Consider G3C A10G, for which the self-cleavage came to 0.215.

For G3C A10C, the self-cleavage is 0.175.

Consider G3U C12A, for which the self-cleavage stood at 0.0925.

G3C G28C: the self-cleavage worked out at 0.0181.

With G3C G28A, the self-cleavage came out at 0.0239.

G3U A13G: the self-cleavage came to 0.181.

For the variant G3U A13C, the self-cleavage amounted to 0.0166.

With G3U A13U, the self-cleavage was determined as 0.105.

With G3U C45U, the self-cleavage is 0.162.

Regarding G3A U21G, the self-cleavage was found to be 0.129.

Turning to G3A U21A, the self-cleavage was 0.455.

With G3A U21C, the self-cleavage was 0.371.

Take G3C G30C: the self-cleavage came out at 0.0279.

Consider G3C G30A, for which the self-cleavage was 0.0737.

Take G3C G25A: the self-cleavage came to 0.0214.

As for G3C G25C, the self-cleavage was 0.0602.

Take G3C G25U: the self-cleavage was found to be 0.047.

For the variant G3C A13C, the self-cleavage stood at 0.0417.

For G3C A13U, the self-cleavage turned out to be 0.0542.

With G3U G4C, the self-cleavage was 0.0209.

As for G3U G4A, the self-cleavage came to 0.0885.

G3C G37A: the self-cleavage was 0.0325.

On to G3C G37U, for which the self-cleavage was found to be 0.0466.

In the case of G3C G37C, the self-cleavage was 0.0266.

Consider G3A U46G, for which the self-cleavage turned out to be 0.688.

Turning to G3A G14C, the self-cleavage came out at 0.159.

For G3U G31A, the self-cleavage was 0.074.

Regarding G3U G31U, the self-cleavage was found to be 0.0468.

In the case of G3U A23G, the self-cleavage is 0.0915.

For G3U U62G, the self-cleavage is 0.108.

For G3U U62A, the self-cleavage was 0.0711.

With G3C C63A, the self-cleavage stood at 0.0751.

Turning to G3A U20A, the self-cleavage was found to be 0.0708.

As to G3A U69A, the self-cleavage came to 0.847.

Regarding G3A U69G, the self-cleavage came out at 0.793.

With G3C U38G, the self-cleavage is 0.0344.

As to G3C U38A, the self-cleavage worked out at 0.1.

For the variant G3A G19C, the self-cleavage stood at 0.0671.

On to G3A G19A, for which the self-cleavage was 0.105.

With G3A G19U, the self-cleavage came to 0.092.

As to G3U U36C, the self-cleavage worked out at 0.122.

On to G3U U36G, for which the self-cleavage stood at 0.135.

For the variant G3A G11C, the self-cleavage was determined as 0.33.

As for G3A G11A, the self-cleavage came out at 0.48.

With G3A G11U, the self-cleavage was found to be 0.402.

For the variant G3C A51C, the self-cleavage stood at 0.0422.

G3C A51G: the self-cleavage amounted to 0.0762.

Turning to G3U C32U, the self-cleavage was 0.0936.

For G3U C66U, the self-cleavage is 0.151.

With G3U C66G, the self-cleavage was determined as 0.145.

Regarding G3C G31C, the self-cleavage worked out at 0.0554.

Consider G3C G68A, for which the self-cleavage was found to be 0.4.

Take G3C G68C: the self-cleavage is 0.432.

In the case of G3U G11C, the self-cleavage is 0.0634.

Take G3C U21A: the self-cleavage worked out at 0.072.

Take G3C U21G: the self-cleavage turned out to be 0.

Consider G3C U21C, for which the self-cleavage amounted to 0.058.

For G3U G19U, the self-cleavage stood at 0.0853.

In the case of G3U G19A, the self-cleavage is 0.0413.

With G3A U61C, the self-cleavage is 0.246.

Regarding G3A U61A, the self-cleavage was 0.269.

As to G3U U21C, the self-cleavage is 0.0376.

Take G3U U21A: the self-cleavage came out at 0.157.

Turning to G3U U21G, the self-cleavage amounted to 0.0385.

Turning to G3A G41A, the self-cleavage is 0.222.

For G3A G41U, the self-cleavage stood at 0.277.

As to G3U U46G, the self-cleavage was found to be 0.161.

On to G3U U46C, for which the self-cleavage was determined as 0.105.

Turning to G3U C24A, the self-cleavage was 0.0286.

Consider G3U C24G, for which the self-cleavage was 0.0481.

As to G3U C24U, the self-cleavage is 0.0674.

With G3C A23C, the self-cleavage amounted to 0.0635.

For the variant G3C A23G, the self-cleavage was found to be 0.0477.

For G3A C66U, the self-cleavage was 0.724.

As to G3A C66G, the self-cleavage turned out to be 0.597.

Take G3A C66A: the self-cleavage was determined as 0.442.

Regarding G3C C57U, the self-cleavage stood at 0.015.

As for G3C C57G, the self-cleavage is 0.0873.

Consider G3C C57A, for which the self-cleavage is 0.0768.

G3C C7G: the self-cleavage was determined as 0.0644.

Take G3C C7A: the self-cleavage worked out at 0.026.

With G3C C7U, the self-cleavage was determined as 0.102.

Turning to G3A G47C, the self-cleavage amounted to 0.658.

As for G3A G47U, the self-cleavage is 0.682.

In the case of G3U C57A, the self-cleavage was 0.0577.

G3U C57U: the self-cleavage was 0.0383.

With G3U G25C, the self-cleavage was found to be 0.0349.

As to G3U A16U, the self-cleavage came to 0.0502.

Consider G3U A16G, for which the self-cleavage was determined as 0.0682.

For the variant G3U A16C, the self-cleavage worked out at 0.0591.

Consider G3C C45U, for which the self-cleavage is 0.121.

Consider G3C C45A, for which the self-cleavage amounted to 0.0668.

For the variant G3C C12A, the self-cleavage was 0.0611.

For the variant G3C C12U, the self-cleavage was found to be 0.0982.

For G3A G25U, the self-cleavage turned out to be 0.054.

Consider G3C C18G, for which the self-cleavage is 0.0441.

Consider G3C C18U, for which the self-cleavage was 0.0442.

For G3C C18A, the self-cleavage was found to be 0.058.

G3C U26C: the self-cleavage was 0.0733.

On to G3C U26G, for which the self-cleavage was 0.0558.

For G3U C6G, the self-cleavage came out at 0.0291.

As for G3U C6U, the self-cleavage amounted to 0.0423.

For G3U C22A, the self-cleavage was determined as 0.051.

Take G3U C22U: the self-cleavage is 0.047.

On to G3U C22G, for which the self-cleavage is 0.0464.

G3U C29U: the self-cleavage came out at 0.0459.

In the case of G3C G65U, the self-cleavage is 0.0451.

Take G3C G65C: the self-cleavage was determined as 0.0156.

As to G3A G58U, the self-cleavage is 0.701.

For G3C, the self-cleavage worked out at 0.147.

As to G3U, the self-cleavage is 0.195.

Regarding G3A G65A, the self-cleavage was found to be 0.527.

For the variant G3A G65U, the self-cleavage was found to be 0.285.

G3U G17U: the self-cleavage came out at 0.0304.

For G3U G17C, the self-cleavage is 0.0675.

For the variant G3U U38C, the self-cleavage was 0.0341.

Consider G3U U38G, for which the self-cleavage came out at 0.0509.

As to G3A U44C, the self-cleavage came out at 0.474.

As for G3A U44G, the self-cleavage is 0.331.

As for G3A U44A, the self-cleavage is 0.54.

On to G3U U64A, for which the self-cleavage worked out at 0.128.

Take G3U U64C: the self-cleavage is 0.132.

As for G3C A60G, the self-cleavage stood at 0.0121.

For G3C A60C, the self-cleavage is 0.0624.

As to G3U U26C, the self-cleavage turned out to be 0.107.

Regarding G3U U26G, the self-cleavage was determined as 0.0677.

On to G3A G50A, for which the self-cleavage was found to be 0.645.
